# Target: the molecule itself
# Test: cryo-EM structure
protein,measurement,value
"Full-length GSDMD(D275A), C-terminal Flag, palmitoylated (natural protein, human, UniProt P57764 1-484, looked up, S-palmitoylation at Cys191) MGSAFERVVRRVVQELDHGGEFIPVTSLQSSTGFQPYCLVVRKPSSSWFWKPRYKCVNLSIKDILEPDAAEPDVQRGRSFHFYDAMDGQIQGSVELAAPGQAKIAGGAAVSDSSSTSMNVYSLSVDPNTWQTLLHERHLRQPEHKVLQQLRSRGDNVYVVTEVLQTQKEVEVTRTHKREGSGRFSLPGATCLQGEGQGHLSQKKTVTIPSGSTLAFRVAQLVIDSDLDVLLFPDKKQRTFQPPATGHKRSTSEGAWPQLPSGLSMMRCLHNFLTAGVPAEGAFTEDFQGLRAEVETISKELELLDRELCQLLLEGLEGVLRDQLALRALEEALEQGQSLGPVEPLDGPAGAVLECLVLSSGMLVPELAIPVVYLLGALTMLSETQHKLLAEALESQTLLGPLELVGSLLEQSAPWQERSTMSLPPGLLGNSWGEGAPAWVLLDECGLELGEDTPHVCWEPQAQGRMCALYASLALLSGLSQEPH",stoichiometry N,33
